Data reported in US7034007.
pKd: −log10 of the molar value.

Tests used:
[1] = biological target: B2 bradykinin receptor (rabbit airway smooth muscle membranes) (rabbit) (UniProt Q28642); test: radioligand binding, airway smooth muscle membranes of saline-treated control allergic rabbits
[2] = biological target: B2 bradykinin receptor (rabbit airway smooth muscle membranes) (rabbit) (UniProt Q28642); test: radioligand binding, airway smooth muscle membranes of allergic rabbits treated with B2MM mismatch oligo, 2 mg total
[3] = biological target: B2 bradykinin receptor (rabbit airway smooth muscle membranes) (rabbit) (UniProt Q28642); test: radioligand binding, airway smooth muscle membranes of allergic rabbits treated with B2MM mismatch oligo, 20 mg total
[4] = biological target: B2 bradykinin receptor (rabbit airway smooth muscle membranes) (rabbit) (UniProt Q28642); test: radioligand binding, airway smooth muscle membranes of allergic rabbits treated with B2MM mismatch oligo, 0.2 mg total
[5] = biological target: B2 bradykinin receptor (rabbit airway smooth muscle membranes) (rabbit) (UniProt Q28642); test: radioligand binding, airway smooth muscle membranes of allergic rabbits treated with A1MM1 mismatch control oligo, 2 mg total
[6] = biological target: B2 bradykinin receptor (rabbit airway smooth muscle membranes) (rabbit) (UniProt Q28642); test: radioligand binding, airway smooth muscle membranes of allergic rabbits treated with A1MM1 mismatch control oligo, 20 mg total
[7] = biological target: B2 bradykinin receptor (rabbit airway smooth muscle membranes) (rabbit) (UniProt Q28642); test: radioligand binding, airway smooth muscle membranes of allergic rabbits treated with adenosine A1 receptor antisense oligo, 2 mg total
[8] = biological target: B2 bradykinin receptor (rabbit airway smooth muscle membranes) (rabbit) (UniProt Q28642); test: radioligand binding, airway smooth muscle membranes of allergic rabbits treated with adenosine A1 receptor antisense oligo, 20 mg total
[9] = biological target: B2 bradykinin receptor (rabbit airway smooth muscle membranes) (rabbit) (UniProt Q28642); test: radioligand binding, airway smooth muscle membranes of allergic rabbits treated with B2A bradykinin receptor antisense oligo, 2 mg total
[10] = biological target: B2 bradykinin receptor (rabbit airway smooth muscle membranes) (rabbit) (UniProt Q28642); test: radioligand binding, airway smooth muscle membranes of allergic rabbits treated with adenosine A1 receptor antisense oligo, 0.2 mg total
[11] = biological target: B2 bradykinin receptor (rabbit airway smooth muscle membranes) (rabbit) (UniProt Q28642); test: radioligand binding, airway smooth muscle membranes of allergic rabbits treated with B2A bradykinin receptor antisense oligo, 20 mg total
[12] = biological target: B2 bradykinin receptor (rabbit airway smooth muscle membranes) (rabbit) (UniProt Q28642); test: radioligand binding, airway smooth muscle membranes of allergic rabbits treated with B2A bradykinin receptor antisense oligo, 0.2 mg total

Sequence of UniProt Q28642 (Q28642 whole entry): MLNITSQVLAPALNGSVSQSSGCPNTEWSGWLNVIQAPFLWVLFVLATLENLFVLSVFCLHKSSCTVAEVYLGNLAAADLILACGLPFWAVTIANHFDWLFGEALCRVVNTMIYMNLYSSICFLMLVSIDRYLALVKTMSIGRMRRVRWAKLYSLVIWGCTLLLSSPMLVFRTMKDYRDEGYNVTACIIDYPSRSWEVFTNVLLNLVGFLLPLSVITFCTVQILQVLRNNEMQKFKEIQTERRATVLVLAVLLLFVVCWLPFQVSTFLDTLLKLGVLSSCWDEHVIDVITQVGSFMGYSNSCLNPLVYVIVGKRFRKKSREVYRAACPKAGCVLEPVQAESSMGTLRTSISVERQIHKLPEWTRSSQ

[3H]NPC 17731 (peptide) was tested, and the Bmax [1] was 14.2 fmol, the pKd [1] was 9.41 and the Bmax [2] was 14.8 fmol. For the same substance, the pKd [2] was 9.43, the Bmax [3] was 14 fmol and the pKd [3] was 9.39. It also gave a Bmax [4] of 15.1 fmol, a pKd [4] of 9.44 and a Bmax [5] of 14.6 fmol. For the same substance, the pKd [5] was 9.42, the Bmax [6] was 14 fmol and the pKd [6] was 9.46. For the same substance, the Bmax [7] was 15.5 fmol, the pKd [7] was 9.39 and the Bmax [8] was 14.8 fmol. It also gave a pKd [8] of 9.41, a Bmax [9] of 11.9 fmol and a pKd [9] of 9.47. For the same substance, the Bmax [10] was 15 fmol, the pKd [10] was 9.47 and the Bmax [11] was 8.7 fmol. The pKd [11] was 9.42, the Bmax [12] was 15.1 fmol and the pKd [12] was 9.46.
